The supplement of paper PMC10065799, “High-throughput profiling of sequence recognition by tyrosine kinases and SH2 domains using bacterial peptide display” (eLife, 2023)

Assays:
[1] = target: c-Src SH2; assay: SH2 binding enrichment of the phosphorylated peptide, bacterial display (enrichment ratio); higher = better substrate or ligand; peptides without Tyr show the background
[2] = target: SHP2-C SH2; assay: as above
[3] = target: Grb2 SH2 (UniProt P62993); assay: as above
[4] = target: Fes (UniProt P07332); assay: phosphorylation enrichment, bacterial display (enrichment ratio); higher = better substrate or ligand; peptides without Tyr show the background
[5] = target: FGFR3 (UniProt P22607); assay: as above
[6] = target: EPHB2 (UniProt P29323); assay: as above
[7] = target: FGFR1 (UniProt P11362); assay: as above
[8] = target: MERTK (UniProt Q12866); assay: as above
[9] = target: EPHB1 (UniProt P54762); assay: as above
[10] = target: Hck (UniProt P08631); assay: as above
[11] = tested on: c-Src; assay: as above
[12] = tested on: c-Abl (mouse); assay: as above
[13] = target: Jak2 (UniProt O60674); assay: as above
[14] = tested on: AncSZ; assay: as above
[15] = tested on: Fer (mouse); assay: as above
[16] = target: Fyn (UniProt P06241); assay: as above
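For SH2 binding enrichment of the phosphorylated peptide, bacterial display in this document: peptide library displayed on the E. coli surface as eCPX fusions, selected cells deep-sequenced, score is each peptide's frequency after selection divided by its frequency in the input.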
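For phosphorylation enrichment, bacterial display in this document: 11-residue human phosphosite peptides and single-mutation variants displayed on the E. coli surface, counted by deep sequencing, each peptide's frequency after selection divided by its frequency in the unselected input library; frequency after pTyr selection over input frequency; kinase dosed for 20-30% of maximal phosphorylation in three min.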

Sequence of Fes (P07332 whole entry, looked up): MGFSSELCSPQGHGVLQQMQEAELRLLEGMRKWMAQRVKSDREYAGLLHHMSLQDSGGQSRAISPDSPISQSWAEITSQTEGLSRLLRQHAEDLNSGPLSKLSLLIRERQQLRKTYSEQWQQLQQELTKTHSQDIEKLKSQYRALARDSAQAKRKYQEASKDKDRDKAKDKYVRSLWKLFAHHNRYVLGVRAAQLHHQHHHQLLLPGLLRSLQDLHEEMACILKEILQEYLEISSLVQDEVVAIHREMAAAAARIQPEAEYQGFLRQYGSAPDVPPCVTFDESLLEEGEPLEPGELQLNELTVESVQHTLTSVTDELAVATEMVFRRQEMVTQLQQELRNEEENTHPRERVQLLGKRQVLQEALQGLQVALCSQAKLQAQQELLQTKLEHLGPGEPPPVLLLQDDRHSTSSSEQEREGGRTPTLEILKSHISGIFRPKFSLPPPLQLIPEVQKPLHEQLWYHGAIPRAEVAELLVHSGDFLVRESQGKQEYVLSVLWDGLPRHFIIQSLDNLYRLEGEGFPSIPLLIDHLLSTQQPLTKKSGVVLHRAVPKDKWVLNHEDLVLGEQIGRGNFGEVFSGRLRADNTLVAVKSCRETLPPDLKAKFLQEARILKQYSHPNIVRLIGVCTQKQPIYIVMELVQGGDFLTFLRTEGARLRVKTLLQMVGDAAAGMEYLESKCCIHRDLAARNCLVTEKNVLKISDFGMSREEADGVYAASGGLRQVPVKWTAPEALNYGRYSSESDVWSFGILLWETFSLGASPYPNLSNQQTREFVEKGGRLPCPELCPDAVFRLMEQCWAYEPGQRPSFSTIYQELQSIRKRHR
Sequence of FGFR1 (P11362 whole entry, looked up): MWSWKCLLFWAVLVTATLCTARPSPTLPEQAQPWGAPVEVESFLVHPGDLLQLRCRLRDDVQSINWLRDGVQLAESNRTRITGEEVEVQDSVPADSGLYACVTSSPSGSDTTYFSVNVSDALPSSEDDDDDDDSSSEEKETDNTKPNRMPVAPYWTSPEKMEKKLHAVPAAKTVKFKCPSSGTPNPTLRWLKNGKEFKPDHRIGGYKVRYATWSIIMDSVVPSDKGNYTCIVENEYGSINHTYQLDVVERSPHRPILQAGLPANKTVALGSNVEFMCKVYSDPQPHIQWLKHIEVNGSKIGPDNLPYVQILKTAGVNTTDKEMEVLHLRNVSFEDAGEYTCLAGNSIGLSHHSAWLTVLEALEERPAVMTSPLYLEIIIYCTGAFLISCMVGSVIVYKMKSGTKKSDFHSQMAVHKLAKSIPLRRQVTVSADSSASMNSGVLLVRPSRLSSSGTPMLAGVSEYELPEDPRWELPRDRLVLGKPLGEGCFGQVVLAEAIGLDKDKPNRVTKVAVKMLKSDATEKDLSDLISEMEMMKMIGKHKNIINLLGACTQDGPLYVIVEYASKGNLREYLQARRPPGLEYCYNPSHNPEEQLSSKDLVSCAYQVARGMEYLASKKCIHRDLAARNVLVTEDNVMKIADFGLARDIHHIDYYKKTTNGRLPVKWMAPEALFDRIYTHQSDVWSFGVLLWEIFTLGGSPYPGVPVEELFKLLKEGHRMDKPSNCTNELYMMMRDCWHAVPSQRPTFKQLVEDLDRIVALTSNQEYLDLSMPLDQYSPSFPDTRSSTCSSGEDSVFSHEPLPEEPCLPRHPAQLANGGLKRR
Sequence of FGFR3 (P22607 whole entry, looked up): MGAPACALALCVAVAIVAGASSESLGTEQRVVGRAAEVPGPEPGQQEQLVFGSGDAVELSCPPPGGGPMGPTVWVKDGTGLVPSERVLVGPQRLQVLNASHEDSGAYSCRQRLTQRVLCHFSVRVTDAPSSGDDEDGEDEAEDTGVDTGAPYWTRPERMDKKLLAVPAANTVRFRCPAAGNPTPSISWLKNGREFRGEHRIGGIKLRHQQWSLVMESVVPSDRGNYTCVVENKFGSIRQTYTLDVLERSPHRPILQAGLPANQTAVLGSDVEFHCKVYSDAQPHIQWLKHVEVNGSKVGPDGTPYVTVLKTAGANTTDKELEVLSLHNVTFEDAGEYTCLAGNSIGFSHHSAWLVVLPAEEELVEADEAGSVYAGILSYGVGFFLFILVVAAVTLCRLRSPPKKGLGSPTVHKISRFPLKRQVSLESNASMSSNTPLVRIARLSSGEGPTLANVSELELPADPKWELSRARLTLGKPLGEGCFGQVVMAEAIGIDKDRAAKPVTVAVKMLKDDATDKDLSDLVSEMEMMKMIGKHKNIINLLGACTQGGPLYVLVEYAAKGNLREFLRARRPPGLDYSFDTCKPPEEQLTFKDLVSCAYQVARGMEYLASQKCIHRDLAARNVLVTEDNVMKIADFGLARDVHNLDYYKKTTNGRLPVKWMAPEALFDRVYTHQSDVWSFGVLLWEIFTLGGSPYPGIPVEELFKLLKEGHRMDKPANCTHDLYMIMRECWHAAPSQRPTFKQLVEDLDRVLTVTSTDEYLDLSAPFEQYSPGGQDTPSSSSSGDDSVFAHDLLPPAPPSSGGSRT
Sequence of MERTK (Q12866 whole entry, looked up): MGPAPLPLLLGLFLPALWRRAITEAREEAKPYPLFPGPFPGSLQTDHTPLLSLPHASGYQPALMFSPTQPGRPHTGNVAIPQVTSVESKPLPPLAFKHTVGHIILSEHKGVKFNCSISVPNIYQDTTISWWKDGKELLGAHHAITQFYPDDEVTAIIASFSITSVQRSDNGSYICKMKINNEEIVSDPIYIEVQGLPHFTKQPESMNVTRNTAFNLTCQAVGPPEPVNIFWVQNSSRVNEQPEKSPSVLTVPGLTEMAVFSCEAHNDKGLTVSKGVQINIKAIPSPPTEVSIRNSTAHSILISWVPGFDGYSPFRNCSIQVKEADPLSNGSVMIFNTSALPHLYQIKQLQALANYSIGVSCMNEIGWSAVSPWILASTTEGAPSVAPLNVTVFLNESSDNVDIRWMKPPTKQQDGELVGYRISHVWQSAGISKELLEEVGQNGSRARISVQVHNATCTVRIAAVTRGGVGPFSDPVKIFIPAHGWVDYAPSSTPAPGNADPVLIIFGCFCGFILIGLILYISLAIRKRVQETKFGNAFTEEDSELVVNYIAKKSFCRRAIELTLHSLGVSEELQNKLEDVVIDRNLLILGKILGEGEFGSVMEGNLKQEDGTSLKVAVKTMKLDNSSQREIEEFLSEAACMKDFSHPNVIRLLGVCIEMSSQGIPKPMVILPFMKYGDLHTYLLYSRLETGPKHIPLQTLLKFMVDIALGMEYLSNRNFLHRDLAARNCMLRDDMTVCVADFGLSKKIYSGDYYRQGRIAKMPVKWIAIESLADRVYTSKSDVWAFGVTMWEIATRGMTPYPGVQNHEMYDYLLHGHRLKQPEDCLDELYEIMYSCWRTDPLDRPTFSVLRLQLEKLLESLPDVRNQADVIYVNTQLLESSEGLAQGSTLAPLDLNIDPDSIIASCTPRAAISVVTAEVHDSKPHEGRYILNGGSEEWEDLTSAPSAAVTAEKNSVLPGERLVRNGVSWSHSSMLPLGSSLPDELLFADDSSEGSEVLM
Sequence of EPHB2 (P29323 whole entry, looked up): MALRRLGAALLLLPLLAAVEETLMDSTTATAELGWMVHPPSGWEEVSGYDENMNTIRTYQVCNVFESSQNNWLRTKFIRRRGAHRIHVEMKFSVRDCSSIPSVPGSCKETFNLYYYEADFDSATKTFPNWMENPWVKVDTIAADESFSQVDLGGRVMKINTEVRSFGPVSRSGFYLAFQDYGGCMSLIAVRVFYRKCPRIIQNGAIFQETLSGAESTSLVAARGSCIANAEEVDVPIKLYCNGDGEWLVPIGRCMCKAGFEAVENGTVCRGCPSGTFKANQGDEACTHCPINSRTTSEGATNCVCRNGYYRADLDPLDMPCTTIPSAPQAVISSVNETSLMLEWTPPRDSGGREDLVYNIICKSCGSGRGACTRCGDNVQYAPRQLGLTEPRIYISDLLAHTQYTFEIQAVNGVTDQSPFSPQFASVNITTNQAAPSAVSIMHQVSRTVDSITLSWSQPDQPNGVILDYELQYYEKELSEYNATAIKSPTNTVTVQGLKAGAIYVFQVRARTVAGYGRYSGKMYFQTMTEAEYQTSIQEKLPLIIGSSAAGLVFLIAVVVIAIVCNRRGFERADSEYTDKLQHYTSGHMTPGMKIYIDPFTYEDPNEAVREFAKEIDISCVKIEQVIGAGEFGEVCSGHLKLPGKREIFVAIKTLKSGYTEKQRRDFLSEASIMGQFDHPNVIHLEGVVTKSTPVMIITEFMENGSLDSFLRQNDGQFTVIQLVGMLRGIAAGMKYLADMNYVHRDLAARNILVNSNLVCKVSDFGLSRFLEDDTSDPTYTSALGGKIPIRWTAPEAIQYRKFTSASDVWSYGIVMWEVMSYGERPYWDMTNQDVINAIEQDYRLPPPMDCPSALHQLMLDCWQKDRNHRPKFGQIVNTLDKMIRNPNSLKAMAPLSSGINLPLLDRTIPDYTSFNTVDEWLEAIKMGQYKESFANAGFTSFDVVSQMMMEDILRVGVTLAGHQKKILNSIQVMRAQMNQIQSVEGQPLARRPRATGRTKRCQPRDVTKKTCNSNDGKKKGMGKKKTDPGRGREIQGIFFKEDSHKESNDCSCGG
Sequence of Hck (P08631 whole entry, looked up): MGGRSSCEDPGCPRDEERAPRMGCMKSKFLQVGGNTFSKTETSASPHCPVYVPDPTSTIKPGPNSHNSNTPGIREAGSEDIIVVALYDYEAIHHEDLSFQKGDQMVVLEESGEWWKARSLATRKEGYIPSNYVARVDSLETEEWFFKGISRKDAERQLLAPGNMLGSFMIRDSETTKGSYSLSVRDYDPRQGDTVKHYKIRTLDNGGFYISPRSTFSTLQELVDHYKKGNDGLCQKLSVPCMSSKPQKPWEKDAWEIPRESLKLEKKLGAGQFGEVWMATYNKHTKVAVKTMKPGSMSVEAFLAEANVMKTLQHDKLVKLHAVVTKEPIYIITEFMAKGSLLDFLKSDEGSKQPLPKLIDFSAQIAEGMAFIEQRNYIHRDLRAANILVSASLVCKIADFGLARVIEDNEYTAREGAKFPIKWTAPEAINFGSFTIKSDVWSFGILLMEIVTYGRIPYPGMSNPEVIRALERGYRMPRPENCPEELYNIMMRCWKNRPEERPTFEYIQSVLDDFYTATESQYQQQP

Row | Sequence | SH2 binding enrichment [1] | SH2 binding enrichment [2] | SH2 binding enrichment [3] | phosphorylation enrichment [4] | phosphorylation enrichment [5] | phosphorylation enrichment [6] | phosphorylation enrichment [7] | phosphorylation enrichment [8] | phosphorylation enrichment [9] | phosphorylation enrichment [10] | phosphorylation enrichment [11] | phosphorylation enrichment [12] | phosphorylation enrichment [13] | phosphorylation enrichment [14] | phosphorylation enrichment [15] | phosphorylation enrichment [16]
1 | FESPRYLQVHI [FANCA_Y488] | 0.648 | 0.781 | 0.912 | 1.04 | 0.61 | 0.461 | 0.534 | 0.495 | 0.782 | 0.564 | 0.411 | 0.949 | 0.867 | 0.928 | 0.676 | 0.408
2 | SLEKSYELPDG [ACTA1_Y242] | 1.26 | 0.65 | 0.824 | 1.15 | 0.707 | 0.531 | 0.544 | 0.467 | 0.614 | 0.534 | 0.479 | 0.712 | 0.913 | 1.06 | 0.538 | 0.49
3 | LIDSSYLTRTA [GREB1L_Y1063] | 0.426 | 0.714 | 0.844 | 0.668 | 0.44 | 0.746 | 0.507 | 0.527 | 0.43 | 0.425 | 0.489 | 0.634 | 0.651 | 0.748 | 0.905 | 0.571
4 | DEIPLYLKGGV [COX7A2_Y44] | 0.454 | 0.716 | 0.83 | 0.962 | 0.656 | 0.508 | 0.5 | 0.391 | 0.566 | 0.522 | 0.422 | 0.593 | 0.854 | 0.79 | 0.485 | 0.492
5 | LIGRRYDDPEV [HSPA9_Y128] | 0.822 | 0.5 | 0.674 | 2.17 | 0.9 | 1.63 | 0.643 | 0.889 | 1.11 | 0.707 | 1.27 | 1.25 | 1.35 | 2.69 | 0.809 | 0.836
6 | IGKAGYTDKVV [ENO1_Y236] | 0.371 | 0.606 | 0.757 | 0.642 | 0.508 | 0.395 | 0.456 | 0.305 | 0.398 | 0.388 | 0.335 | 0.481 | 0.632 | 0.531 | 0.365 | 0.359
7 | AEEPIYIIVPA [BMXtide_2014] | 0.83 | 0.956 | 1.05 | 2.98 | 12.1 | 24.2 | 13.9 | 9.02 | 18.5 | 7.96 | 8.8 | 8.02 | 2.47 | 4.75 | 11.1 | 10.1
8 | LIHLHYIRRDY [BBS4_Y43_K46R] | 0.763 | 1.17 | 1.52 | 0.773 | 0.759 | 0.526 | 0.417 | 0.524 | 0.334 | 0.47 | 0.388 | 0.524 | 0.562 | 0.952 | 0.41 | 0.389
9 | LPPGEYVVVPS [CAPN1_Y494] | 0.789 | 0.795 | 1.06 | 1.45 | 1.93 | 3.72 | 2.83 | 0.927 | 5.23 | 0.67 | 0.641 | 1.31 | 1.32 | 1.7 | 0.778 | 0.88
10 | ALAHKYQGGGG [HBB_Y146_H147Q] | 0.415 | 0.546 | 0.691 | 0.58 | 0.476 | 0.436 | 0.476 | 0.588 | 0.204 | 0.375 | 0.491 | 0.565 | 0.527 | 0.824 | 0.283 | 0.451
11 | FRPPFYHRDCM [HGD_Y334_N337D_YF] | 1.02 | 1.06 | 1.03 | 1.1 | 0.724 | 0.659 | 0.558 | 0.471 | 0.611 | 0.507 | 0.477 | 0.735 | 0.942 | 0.895 | 0.577 | 0.459
12 | THQKSYQPGRK [CEFIP_Y210_N208K] | 0.514 | 0.408 | 0.887 | 0.472 | 0.362 | 0.432 | 0.433 | 0.308 | 0.273 | 0.52 | 0.322 | 0.35 | 0.349 | 0.437 | 0.464 | 0.371
13 | PNKAVYTKMMT [G6PD_Y401_E398K] | 3.63 | 4.8 | 0.959 | 0.562 | 0.423 | 0.519 | 0.661 | 0.332 | 0.467 | 0.437 | 0.601 | 0.426 | 0.59 | 0.65 | 0.656 | 0.422
14 | AKIDGYITSYR | 0.501 | 0.739 | 0.815 | 0.763 | 0.556 | 0.51 | 0.469 | 0.415 | 0.52 | 0.407 | 0.417 | 0.565 | 0.558 | 0.809 | 0.338 | 0.433
15 | REAAAYPHGRL [AGXT_Y297_L298P] | 0.55 | 0.739 | 0.989 | 0.46 | 0.41 | 0.442 | 0.25 | 0.32 | 0.254 | 0.404 | 0.329 | 0.415 | 0.704 | 0.516 | 0.192 | 0.274

Continued, in another order:

Row | SH2 binding enrichment [1] | SH2 binding enrichment [2] | SH2 binding enrichment [3] | Sequence | phosphorylation enrichment [4] | phosphorylation enrichment [5] | phosphorylation enrichment [6] | phosphorylation enrichment [7] | phosphorylation enrichment [8] | phosphorylation enrichment [9] | phosphorylation enrichment [10] | phosphorylation enrichment [11] | phosphorylation enrichment [12] | phosphorylation enrichment [13] | phosphorylation enrichment [14] | phosphorylation enrichment [15] | phosphorylation enrichment [16]
16 | 0.946 | 1.42 | 1.34 | AALVQYFMEHH [PTPN11_Y80_E76A_YF] | 1.05 | 0.727 | 0.541 | 0.573 | 0.401 | 0.623 | 0.519 | 0.441 | 0.665 | 0.772 | 0.798 | 0.476 | 0.439
17 | 0.462 | 0.744 | 0.873 | VNKIFHPDFIV [LIG3_Y768_Y768H_YF] | 0.871 | 0.547 | 0.454 | 0.419 | 0.432 | 0.487 | 0.39 | 0.497 | 0.6 | 0.695 | 0.793 | 0.397 | 0.447
18 | 0.559 | 0.51 | 0.949 | KRIETYFSKNF [PLP1_Y50_L46R_YF] | 0.874 | 0.532 | 0.417 | 0.516 | 0.395 | 0.43 | 0.47 | 0.467 | 0.752 | 0.723 | 0.703 | 0.46 | 0.499
19 | 0.978 | 2.31 | 1.42 | LLREWYLQDPF [SIX3_Y225_YF] | 1.73 | 0.784 | 0.765 | 0.941 | 0.567 | 0.557 | 0.509 | 0.788 | 1.15 | 1.52 | 1.43 | 0.661 | 0.564
20 | 0.421 | 0.857 | 0.565 | LWPIWYRCRRP [MRGPRX1_Y130_H133R] | 0.512 | 0.507 | 0.49 | 0.461 | 0.685 | 0.58 | 0.805 | 0.431 | 0.542 | 0.408 | 0.618 | 0.331 | 0.522
21 | 0.811 | 1.1 | 1.09 | MFNPMYALFRT [HUWE1_Y4078] | 0.905 | 0.676 | 0.693 | 0.545 | 6.9 | 1.42 | 4.67 | 5.38 | 1.19 | 0.827 | 0.946 | 4.26 | 4.28
22 | 0.586 | 0.876 | 0.902 | VKPENYWRLDI [VHL_Y175_R176W] | 1.15 | 0.895 | 0.61 | 0.783 | 0.588 | 0.814 | 0.443 | 0.377 | 0.839 | 1.39 | 1.13 | 0.441 | 0.381
23 | 0.489 | 0.641 | 0.849 | AGGTRYRFVSQ [UCN3_Y95_R91G_YF] | 0.43 | 0.377 | 0.272 | 0.461 | 0.363 | 0.397 | 0.338 | 0.393 | 0.576 | 0.465 | 0.426 | 0.386 | 0.536
24 | 0.732 | 0.714 | 0.842 | MEIHAYLKLLE [LMNA_Y376_R377L] | 1.8 | 0.959 | 0.708 | 0.517 | 0.48 | 0.859 | 0.574 | 0.569 | 1.24 | 1.62 | 1.33 | 0.587 | 0.521
25 | 0.614 | 0.576 | 0.84 | SDVWSYGVTMW [ZAP70_Y525] | 1.39 | 0.847 | 0.695 | 0.557 | 0.502 | 0.688 | 0.695 | 0.54 | 0.979 | 1.26 | 1.15 | 0.63 | 0.477
26 | 0.735 | 0.541 | 0.883 | DFFDLYGGQKF [PTPN11_Y66_E69Q_YF] | 0.94 | 0.715 | 0.662 | 0.609 | 0.567 | 0.464 | 8.96 | 6.89 | 0.866 | 0.931 | 1.13 | 0.82 | 7.17
27 | 0.555 | 0.571 | 1.31 | FIGVTYKNEED [PDGFRA_Y993_YF] | 1.11 | 0.629 | 0.484 | 0.584 | 0.336 | 0.565 | 0.451 | 0.491 | 0.649 | 0.92 | 1.02 | 0.49 | 0.432
28 | 0.553 | 0.532 | 0.755 | RTLSEYARPHV [RERE_Y1259] | 1.11 | 0.51 | 0.852 | 0.606 | 0.443 | 0.832 | 0.683 | 0.454 | 31.7 | 0.871 | 1.14 | 0.468 | 0.668
29 | 0.746 | 0.859 | 0.878 | GHEYIYVDRMQ [PDGFRB_Y581_P584R] | 0.695 | 3.24 | 0.546 | 5.2 | 0.48 | 0.796 | 1.44 | 2.62 | 0.607 | 0.644 | 0.891 | 0.472 | 1.94
30 | 0.614 | 0.597 | 0.985 | HLVLNYGVCIC [JAK2_Y613_V617I] | 2.09 | 1.46 | 0.92 | 0.607 | 0.535 | 1.39 | 0.484 | 0.576 | 1.52 | 1.68 | 1.52 | 0.67 | 0.551
31 | 0.729 | 0.752 | 1.07 | MSRDIYSTDYY [NTRK1_Y676] | 0.933 | 3.6 | 8.84 | 4.81 | 9.04 | 6.24 | 3.99 | 5.12 | 0.733 | 1.01 | 1.83 | 1.5 | 4.75
32 | 0.524 | 0.679 | 0.864 | SEPDLYYDPRG [PKP1_Y160_C161Y] | 1.16 | 8.64 | 13.6 | 10.8 | 7.05 | 14.3 | 8.75 | 4.93 | 3.09 | 3.35 | 2.91 | 1.65 | 5.41
33 | 1.35 | 1.12 | 1.38 | PRARTYCFKQE [KLHDC9_Y175_S171R_YF] | 0.458 | 0.517 | 0.301 | 0.395 | 0.355 | 0.345 | 0.502 | 0.458 | 0.591 | 0.435 | 0.519 | 0.383 | 0.421
